Data from patent publication US20190389933A1 (published 2019).

B1: XENP22553, humanized variant 1C11[PD-1]_H3L3 of anti-PD-1 clone 1C11 (antibody, V domains shown)
VH: QIQLVQSGSELKKPGASVKVSCKASGYTFTHYGMNWVRQAPGQGLEWMGWINTYTGEPTYADGFTGRFVFSLDTSVSTAYLQISSLKAEDTAVYFCARDYYGSSPYWGQGTLVTVSS
VL: DVLMTQSPDSLAVSLGERATINCKSSQSIVHSNGNTYLEWYQQKPGQSPKLLIYKVSNRFSGVPDRFSGSGSGTDFTLTISSLQAEDVAVYYCFQGSHVPNTFGGGTKVEIKR
B2: IL2Rbeta (receptor)
chain: AVNGTSQFTCFYNSRANISCVWSQDGALQDTSCQVHAWPDRRRWNQTCELLPVSQASWACNLILGAPDSQKLTTVDIVTLRVLCREGVRWRVMAIQDFKPFENLRLMAPISLQVVHVETHRCNISWEISQASHYFERHLEFEARTLSPGHTWEEAPLLTLKQKQEWICLETLTPDTQYEFQVRVKPLQGEFTTWSPWSQPLAFRTKPAALGKD

Assays:
histidine-tagged PD-1 = histidine-tagged PD-1 (UniProt Q15116 25-167); test: Octet
histidine-tagged PD-1, sequence (Q15116 25-167): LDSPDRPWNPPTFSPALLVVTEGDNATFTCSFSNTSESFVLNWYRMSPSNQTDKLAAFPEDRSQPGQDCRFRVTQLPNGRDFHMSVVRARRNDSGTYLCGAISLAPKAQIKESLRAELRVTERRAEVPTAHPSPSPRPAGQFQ

21480B = test: Octet

Binder | Kd (histidine-tagged PD-1) | Kd (21480B)
B1 | 19.1 nM | –
B2 | – | 8.1 nM
